Assay results reported in patent US20050222029A1 (MYRIAD GENETICS, published 2005).

Experiments:
Experiment in all cases: yeast two-hybrid
[1] = target: T1, Hook2 protein 201-559 (human, UniProt Q96ED9 201-559)
T1 construct: prey (Gal4 AD-HA fusion)
T1 sequence (looked up): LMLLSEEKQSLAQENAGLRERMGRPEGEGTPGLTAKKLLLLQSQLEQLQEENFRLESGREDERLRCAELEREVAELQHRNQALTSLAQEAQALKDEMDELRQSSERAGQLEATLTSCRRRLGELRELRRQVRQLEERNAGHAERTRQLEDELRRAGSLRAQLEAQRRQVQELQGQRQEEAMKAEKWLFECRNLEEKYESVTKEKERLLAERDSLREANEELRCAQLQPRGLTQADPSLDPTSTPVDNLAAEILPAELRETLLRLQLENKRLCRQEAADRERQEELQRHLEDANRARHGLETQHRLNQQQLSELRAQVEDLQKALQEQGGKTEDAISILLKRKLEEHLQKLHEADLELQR

[2] = target: T2, Intersection 1 387-611 (human, UniProt Q15811 387-611)
T2 construct: prey (Gal4 AD-HA fusion); also called Intersectin 1; ITSN1
T2 sequence (looked up): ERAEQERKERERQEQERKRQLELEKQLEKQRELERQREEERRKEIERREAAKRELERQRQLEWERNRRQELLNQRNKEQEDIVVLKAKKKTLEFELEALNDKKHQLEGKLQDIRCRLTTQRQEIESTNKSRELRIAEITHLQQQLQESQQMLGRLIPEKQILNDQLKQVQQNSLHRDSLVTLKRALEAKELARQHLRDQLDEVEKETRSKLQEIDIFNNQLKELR

[3] = target: T3, Keratin 5 282-448 (human, UniProt P13647 282-448)
T3 construct: prey (Gal4 AD-HA fusion)
T3 sequence (looked up): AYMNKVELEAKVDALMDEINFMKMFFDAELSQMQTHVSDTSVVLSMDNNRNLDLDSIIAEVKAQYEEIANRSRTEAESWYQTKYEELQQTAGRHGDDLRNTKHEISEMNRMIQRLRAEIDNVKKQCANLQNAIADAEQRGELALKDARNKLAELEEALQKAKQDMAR

[4] = target: T4, GTPase-activiating protein 1 1308-1606 (human, UniProt P46940 1308-1606)
T4 construct: prey (Gal4 AD-HA fusion); also called IQGAP1; IQGAP
T4 sequence (looked up): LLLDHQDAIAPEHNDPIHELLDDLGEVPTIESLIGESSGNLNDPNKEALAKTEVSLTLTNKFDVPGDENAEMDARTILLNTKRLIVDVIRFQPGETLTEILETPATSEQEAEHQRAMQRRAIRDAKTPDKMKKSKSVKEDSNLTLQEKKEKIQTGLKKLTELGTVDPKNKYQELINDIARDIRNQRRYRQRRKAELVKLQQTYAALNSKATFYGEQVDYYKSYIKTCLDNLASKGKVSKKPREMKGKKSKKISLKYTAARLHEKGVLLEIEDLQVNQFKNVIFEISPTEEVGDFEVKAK

[5] = target: T5, Pallid 21-172 (human, UniProt Q9UL45 21-172)
T5 construct: prey (Gal4 AD-HA fusion)
T5 sequence (looked up): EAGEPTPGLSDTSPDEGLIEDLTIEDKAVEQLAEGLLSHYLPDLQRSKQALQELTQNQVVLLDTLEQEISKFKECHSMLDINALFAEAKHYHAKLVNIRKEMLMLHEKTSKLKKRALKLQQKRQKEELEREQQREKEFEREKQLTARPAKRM

[6] = target: T6, Serum deprivation response 75-258 (human, UniProt O95810 75-258)
T6 construct: prey (Gal4 AD-HA fusion)
T6 sequence (looked up): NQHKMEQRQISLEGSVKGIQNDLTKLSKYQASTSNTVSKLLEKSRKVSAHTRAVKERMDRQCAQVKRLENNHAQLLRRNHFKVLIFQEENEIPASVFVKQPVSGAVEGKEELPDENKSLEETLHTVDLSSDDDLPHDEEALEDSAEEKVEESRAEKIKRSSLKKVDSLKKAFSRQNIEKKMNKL

[7] = target: T7, GTPase-activiating protein 1 1392-1657 (human, UniProt P46940 1392-1657)
T7 construct: prey (Gal4 AD-HA fusion); also called IQGAP1; IQGAP
T7 sequence (looked up): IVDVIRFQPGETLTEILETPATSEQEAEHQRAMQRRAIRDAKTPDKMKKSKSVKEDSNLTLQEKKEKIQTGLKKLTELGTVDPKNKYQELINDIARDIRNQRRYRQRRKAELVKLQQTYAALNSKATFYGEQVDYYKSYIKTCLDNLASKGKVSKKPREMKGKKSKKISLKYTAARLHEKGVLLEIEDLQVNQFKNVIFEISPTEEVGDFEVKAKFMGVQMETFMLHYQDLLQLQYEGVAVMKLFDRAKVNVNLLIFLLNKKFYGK

[8] = target: T8, GTPase-activiating protein 1 1419-1657 (human, UniProt P46940 1419-1657)
T8 construct: prey (Gal4 AD-HA fusion); also called IQGAP1; IQGAP
T8 sequence (looked up): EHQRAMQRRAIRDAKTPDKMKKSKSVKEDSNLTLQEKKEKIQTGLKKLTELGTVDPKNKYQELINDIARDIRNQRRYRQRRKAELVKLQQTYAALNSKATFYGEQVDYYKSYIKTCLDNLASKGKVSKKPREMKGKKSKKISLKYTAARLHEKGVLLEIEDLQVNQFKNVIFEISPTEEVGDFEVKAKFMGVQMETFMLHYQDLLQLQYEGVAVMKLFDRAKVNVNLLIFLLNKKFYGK

Measured: binding result

B1: Tumor Suppressor (TSG101) 240-391 (other, human, UniProt Q99816 240-390, looked up)
chain: WRMKEEMDRAQAELNALKRTEEDLKKGHQKLEEMVTRLDQEVAEVDKNIELLKKKDEELSSALEKMENQSENNDIDEVIIPTAPLYKQILNLYAEENAIEDTIFYLGEALRRGVIDLDVFLKHVRLLSRKQFQLRALMQKARKTAGLSDLY
notes: range 240-391; bait (Gal4 DBD fusion); also called TSG101 240-390
binds: [1] | [2] | [3] | [4] | [5] | [6] | [7] | [8]
